Test [1] concerns the target T1, PD-1-His (S1352, Y-Biologics) (UniProt Q15116 25-170, limits assumed).
T1 construct: not shown: His tag
The test can be described thus: competition ELISA: PD-L2-Fc coated, PD-1-His as binder, antibody as competitor. How it is done: (§1) Human PD-1-Fc (S1420, Y-Biologics) or PD-L2-Fc (#10292-H02H, Sino) was added to wells of a 96-well immuno microplate (#439454, Thermo) and then washed three times with PBS containing 0.05% tween-20 (#P9416, Sigma-Aldrich), followed by allowing to stand in a cleaning solution containing 4% skim milk (#232120, Becton, Dickinson and Company) at room temperature for 1 hour to block non-specific binding. […] After the resulting product was subjected to the same washing method as above, the anti-Biotin-His antibody (#MA1-21315-BTIN, Thermo) diluted to 1:2000 was added to the well of the microplate, allowed to react at room temperature for 1 hour, streptavidin poly-HRP antibody (#21140, Pierce) diluted to 1:5000 was added to the well of microplate, reacted at room temperature for 1 hour and then washed in the same manner. 100 ul of a TMB substrate solution (#T0440, Sigma-Aldrich) was added to the reaction product, light was shielded, and the reaction product was allowed to stand at room temperature for 3 minutes, 50 μL of 2.5 M sulfuric acid (#S1478, Samchun) was added to stop the reaction, and absorbance was measured at 450 nm using a spectrophotometer (*GM3000, Glomax® Discover System Promega).

Test [2] addresses T2, PD1-hFc (human, UniProt Q15116 25-170).
T2 construct: extracellular domain; also called PD1-hFc protein; Human PD-1-Fc (S1420, Y-Biologics)
Briefly: competition ELISA: PD1-Fc coated, PDL1-His as binder, antibody as competitor. How it is done:
as §1

Test [3] deals with T3, human PD-1 (NM_005018.2) over-expressed on cells (human, UniProt Q15116 25-288). Briefly: cell-based or functional assay.
Test [4] addresses T3, human PD-1 (NM_005018.2) over-expressed …. Briefly: flow cytometry on cells over-expressing human PD-1, fit of Geometric Mean. In general terms: In flow cytometry, cells or beads pass a laser one at a time.
Test [5] addresses T2, PD1-hFc. The test can be described thus: SPR ProteOn XPR36, PD1-hFc immobilised, antibody as analyte. On the procedure:
A ProteOn XPR36 (BioRad) instrument was used. The GLC sensor chip (BioRad) was mounted on the instrument and washed with PBST buffer, and the carboxymethyldextran surface was activated with an EDC/sulfo-NHS mixed solution. PD1-hFc dissolved at a concentration of 5 ug/ml in a 10 mM sodium acetate buffer solution (pH 5.0) was injected and immobilized on the GLC sensor chip.
In order to deactivate the activated carboxyl groups that remain unreacted with the PD1 protein, 1 M ethanolamine was flowed and 10 mM glycine (pH 2.0) was injected in order to wash proteins that remain unbound to the sensor chip.
The equilibrium dissociation constant (KD) was calculated by plotting and fitting the sensogram data in the equilibrium state depending on concentration.

The target of the next test is T4, monkey PD1 protein (monkey).
T4 construct: also called monkey PD-1 proteins
The test can be described thus: SPR ProteOn XPR36; format for monkey PD1 not described.

In the next test the target is T5, ITGA6-Fc.
T5 construct: Fc fusion
T5 sequence (P23229 whole entry, species assumed, looked up): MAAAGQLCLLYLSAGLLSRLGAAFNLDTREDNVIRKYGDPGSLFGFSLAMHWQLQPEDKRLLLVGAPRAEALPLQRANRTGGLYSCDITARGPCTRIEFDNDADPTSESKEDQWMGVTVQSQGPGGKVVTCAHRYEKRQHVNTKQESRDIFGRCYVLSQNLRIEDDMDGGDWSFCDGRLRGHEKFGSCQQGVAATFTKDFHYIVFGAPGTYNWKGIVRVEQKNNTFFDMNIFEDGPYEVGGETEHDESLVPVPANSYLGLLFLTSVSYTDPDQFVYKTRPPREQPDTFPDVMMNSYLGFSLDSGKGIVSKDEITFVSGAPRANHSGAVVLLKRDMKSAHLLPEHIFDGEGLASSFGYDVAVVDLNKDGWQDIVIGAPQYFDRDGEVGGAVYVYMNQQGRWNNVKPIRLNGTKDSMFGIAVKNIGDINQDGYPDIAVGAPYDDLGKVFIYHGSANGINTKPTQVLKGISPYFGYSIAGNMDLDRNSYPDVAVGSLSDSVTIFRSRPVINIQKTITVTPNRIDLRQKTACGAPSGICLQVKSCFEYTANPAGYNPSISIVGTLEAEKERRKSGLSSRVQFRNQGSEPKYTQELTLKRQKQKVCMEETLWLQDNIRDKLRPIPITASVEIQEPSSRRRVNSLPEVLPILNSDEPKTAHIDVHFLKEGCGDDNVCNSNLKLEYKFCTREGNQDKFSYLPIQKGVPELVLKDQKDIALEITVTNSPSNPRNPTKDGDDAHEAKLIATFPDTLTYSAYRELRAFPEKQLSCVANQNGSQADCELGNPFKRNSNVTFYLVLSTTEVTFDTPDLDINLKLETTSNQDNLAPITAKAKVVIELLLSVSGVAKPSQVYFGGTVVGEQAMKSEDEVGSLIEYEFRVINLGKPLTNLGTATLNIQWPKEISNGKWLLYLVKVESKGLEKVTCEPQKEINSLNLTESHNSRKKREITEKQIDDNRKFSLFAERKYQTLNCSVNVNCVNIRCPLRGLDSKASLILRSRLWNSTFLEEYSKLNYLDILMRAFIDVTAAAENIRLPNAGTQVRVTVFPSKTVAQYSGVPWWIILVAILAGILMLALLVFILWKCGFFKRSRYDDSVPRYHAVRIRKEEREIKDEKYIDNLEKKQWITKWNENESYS
The test can be described thus: ELISA, 1 ug/ml.

A further test concerns the target T6, M7.
T6 construct: also called PD1 mutant M7
Briefly: ELISA, 1 ug/ml. In general terms: In an ELISA, binding on a coated surface is turned into a signal by an enzyme label.

Another test addresses T7, M11.
T7 construct: also called PD1 mutant M11
Briefly: ELISA, 1 ug/ml.

For a further test, the target named is T8, rat PD1 protein (rat, UniProt D3ZIN8 25-169).
T8 construct: also called rat PD-1 proteins
T8 sequence: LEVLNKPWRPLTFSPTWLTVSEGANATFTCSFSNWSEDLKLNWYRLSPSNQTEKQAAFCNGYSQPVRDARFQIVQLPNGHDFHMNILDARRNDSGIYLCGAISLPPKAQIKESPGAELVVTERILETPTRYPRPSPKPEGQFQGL
The test can be described thus: SPR ProteOn XPR36; format for rat PD1 not described.

Test [6] concerns the target T3, human PD-1 (NM_005018.2) over-expressed …. Briefly: cell-based or functional assay. The source holds these as a separate data set.
The target of test [7] is T2, PD1-hFc. Briefly: ProteOn XPR36; legend names PD1-hFc, the sheet names the immobilised protein PD-1 C-his.

B1: PD1-62E1 (antibody, V domains shown)
VH: QVQLVESGGDLVKPGRSLRLSCTGSGFTFGDHPLTWVRQIPGKGLEWVGFIRSKAYGETTEYAASVKGRFTISRDDSKSIAYLQMNSLRAEDTAVYYCASVSYCSGGSCYQGTFDYWGQGTLVTVSS
VL: DIQMTQSPAILSLSPGERATLSCRASQSVTSDVAWYQHIRGQAPRLLIYDASNRASGIPARFSGGGSGTEFTLTISSLEPEDFAVYYCQQYNNWPLTFGGGTKVEIK
On to B1, for which the IC50 in [1] was determined as 314 nM; with PD1-hFc [2], 2.89 nM. Also, in test [3], the “EC50 [nM], PD1/PD-L1 blockade bioassay” value worked out at 2.73 nM.

B2: PD1-49A2(A/2B9) (antibody, V domains shown)
VH: QVQLVESGGGVVQPGRSLRLSCAASGFTFLRYAMHWVRQAPGKGLEWVAVISYDGRYKYYADSVKGRFTISRDNSKNTLYLQMNSLRAEDTAVYYCTTTTFDSWGQGTLVTVSS
VL: DIVMTQTPLSLPVTPGEAASISCRSSQSLLDSEDGNTYLDWYLQKPGQSPQLLIYTLSHRASGVPDRFSGSGSGTDFTLEISRVEAEDVGVYYCMQRRDFPFTFGQGTKVDIK
notes: scFv-phage in the screening ELISA; whole IgG in the other assays; also called 49A2-2B9; 49A2 (2B9)
Regarding B2, the IC50 in [1] stood at 59 nM; in the test with PD1-hFc [2] it was 6.38 nM. In addition, in test [4], the Bmax was found to be 2900. Besides, the Kd in [4] was 6.2 nM; with monkey PD1 protein, 1 pM; in the test with rat PD1 protein, 4.23 nM; in the test with PD1-hFc [7], < 1 pM. Further, the results for the kon with PD1-hFc [5], with monkey PD1 protein and in the test with rat PD1 protein were 377000 M⁻¹ s⁻¹, 185000 M⁻¹ s⁻¹ and 148000 M⁻¹ s⁻¹, respectively. Further, the koff with monkey PD1 protein was 1e-07 s⁻¹; with rat PD1 protein, 0.000625 s⁻¹; with PD1-hFc [7], < 1e-07 s⁻¹. For the same molecule, in test [3], the “EC50 [nM], PD1/PD-L1 blockade bioassay” value was found to be 1.23 nM. In addition, the OD490 with ITGA6-Fc is 0.1; with M7, 0.083; with M11, 0.433. In addition, the EC50 in test [6] is 0.689 nM.

B3: PD1-45D6(A/5B2) (antibody, V domains shown)
VH: QVQLVESGGGVVQPGRSLRLSCAASGFTFSFYAMHWVRQAPGKGLEWVAVISYDGNDKYYADSVKGRFTISRDNSKNTLYLQMNSLRAEDTAVYYCVPTTFEYWGQGTLVTVSS
VL: DIVMTQTPLSPPVTPGEPASISCRSSQSLLDSDDGNTYLDWYLQKPGQSPQLLIYTLSHRASGVPDRFSGSGSGTDFTLEISRVEAEDVGVYYCMQRRDFPFTFGQGTKLDIK
notes: scFv-phage in the screening ELISA; whole IgG in the other assays; also called 45D6-5B2; PD1 45D6 5B2
B3: the IC50 stood at 75.4 nM in test [1] and 3.09 nM with PD1-hFc [2]. Besides, the Kd came to 0.0582 nM with PD1-hFc [5] and 4.59 nM in the test with rat PD1 protein. In addition, the figures for the koff with PD1-hFc [5] and with rat PD1 protein were 1.93e-05 s⁻¹ and 0.000863 s⁻¹, respectively. Also, the kon stood at 332000 M⁻¹ s⁻¹ with PD1-hFc [5], 208000 M⁻¹ s⁻¹ with monkey PD1 protein and 188000 M⁻¹ s⁻¹ in the test with rat PD1 protein. The “EC50 [nM], PD1/PD-L1 blockade bioassay” value in test [3] stood at 1.48 nM. For the same molecule, the values for the OD490 in the test with ITGA6-Fc, with M7 and with M11 were 0.124, 0.238 and 0.446, respectively. For the same molecule, a half-maximal response in test [6] (EC50) required 1.66 nM.

A word on the IC50: it is the point on the concentration scale where inhibition reaches its midpoint. In general, Kd refers to the concentration at which binding is half-saturated. Broadly, the kon is a measure of how fast the partners come together. In general, koff refers to the rate constant with which the complex falls apart. The EC50 is the concentration at which the effect is half-maximal.
